According to patent US20240386992A1 (MAX DELBR CK CENTRUM F R MOLEKULARE MEDIZIN IN DER …, published 2024):

B1: D12 (antibody, V domains shown)
VH: EVKLVESGGGLVKPGGSLKLSCAASGFTFSSYAMSWVRQTPEKRLEWVATISSGGTYTYYPDSVKGRFTISRDNAENTLYLQMSSLRSEDTAMYYCVRDGNSMDYWGQGTSVTVSS
VL: DIQMTQTTSSLSASLGDRVTIICRASQDINNYLNWYQQKPDGTVKLLIYYTSRLHSGVPSRFSGSGSGSDYSLTISNLEQEDIATYFCQQANTLPPTFGAGTKLELR
B2: LCA60 (antibody, V domains shown)
VH: EVQLLESGGGLVKPGGSLRLSCEASGLTFSNVWMSWVRQAPGKGLEWVGRIKRKSEGATTDYGAPVKGRFTLSRDDSKNTVYLQMNSLKIDDTAVYYCSTLTRGGDVWSSSYYFDYWGQGALVTVSS
VL: QSALTQPASVSGSPGQSITISCTGTSSDVGTYDLVSWYQQHPGKSPKLMIYADIKRPSGVSHRFSGSKSGNTASLTISGLQSADEADYYCCLYAGSSTSVIFGGGTKVT

Target: MERS-CoV wild type receptor-binding domain (MERS-wtRBD), Twin Strep tagged (MERS-CoV)
Assay: ELISA (FIG. 9)

| Binder | binding result |
| --- | --- |
| B1 | binds |
| B2 | binds |
